Experiment [1] addresses T1, D1-Fc (human, UniProt Q8NHL6).
T1 construct: D1 domain; also called LILRB1 D1-Fc
Description: ELISA on LILRB1 domain-Fc fusion proteins. (An ELISA detects its analyte on a solid surface through an enzyme-linked reagent.)

Experiment [2] has as its target T2, D2-Fc (human, UniProt Q8NHL6).
T2 construct: D2 domain; also called LILRB1 D2-Fc
The experiment can be described thus: ELISA on LILRB1 domain-Fc fusion proteins.

The target of experiment [3] is T3, D3-Fc (human, UniProt Q8NHL6).
T3 construct: D3 domain; also called LILRB1 D3-Fc
T3 sequence (Q8NHL6 222-312 limits assumed): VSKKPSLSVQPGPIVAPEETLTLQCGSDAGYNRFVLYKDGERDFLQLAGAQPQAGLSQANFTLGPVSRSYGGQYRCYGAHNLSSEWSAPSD
Description: ELISA on LILRB1 domain-Fc fusion proteins.

Experiment [4] deals with T4, D4SR-Fc (human, UniProt Q8NHL6).
T4 construct: D4 and stalk region
T4 sequence (Q8NHL6 313-461 limits assumed): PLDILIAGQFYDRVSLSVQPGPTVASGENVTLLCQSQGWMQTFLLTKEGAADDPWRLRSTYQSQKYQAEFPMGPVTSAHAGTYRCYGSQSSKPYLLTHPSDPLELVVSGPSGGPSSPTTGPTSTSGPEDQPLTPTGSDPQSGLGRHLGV
The experiment can be described thus: ELISA on LILRB1 domain-Fc fusion proteins.

Experiment [5] concerns the target T5, SR-Fc (human, UniProt Q8NHL6).
T5 construct: stalk region
Description: ELISA on LILRB1 domain-Fc fusion proteins.

Experiment [6] addresses T6, D23-Fc (human, UniProt Q8NHL6).
T6 construct: D2-D3
The experiment can be described thus: ELISA on LILRB1 domain-Fc fusion proteins.

The target of experiment [7] is T7, D34SR-Fc (human, UniProt Q8NHL6).
T7 construct: D3-D4 and stalk region
T7 sequence (Q8NHL6 222-461 limits assumed): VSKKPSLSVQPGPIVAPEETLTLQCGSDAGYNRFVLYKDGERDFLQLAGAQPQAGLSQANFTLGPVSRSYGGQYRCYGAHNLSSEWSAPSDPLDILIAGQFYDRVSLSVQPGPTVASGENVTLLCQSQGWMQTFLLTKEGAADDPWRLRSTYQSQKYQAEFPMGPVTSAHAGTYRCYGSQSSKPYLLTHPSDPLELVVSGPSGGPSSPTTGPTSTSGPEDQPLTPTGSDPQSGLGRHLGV
Description: ELISA on LILRB1 domain-Fc fusion proteins.

In experiment [8] the target is T8, D234SR-Fc (human, UniProt Q8NHL6).
T8 construct: D2-D4 and stalk region
T8 sequence (Q8NHL6 116-461 limits assumed): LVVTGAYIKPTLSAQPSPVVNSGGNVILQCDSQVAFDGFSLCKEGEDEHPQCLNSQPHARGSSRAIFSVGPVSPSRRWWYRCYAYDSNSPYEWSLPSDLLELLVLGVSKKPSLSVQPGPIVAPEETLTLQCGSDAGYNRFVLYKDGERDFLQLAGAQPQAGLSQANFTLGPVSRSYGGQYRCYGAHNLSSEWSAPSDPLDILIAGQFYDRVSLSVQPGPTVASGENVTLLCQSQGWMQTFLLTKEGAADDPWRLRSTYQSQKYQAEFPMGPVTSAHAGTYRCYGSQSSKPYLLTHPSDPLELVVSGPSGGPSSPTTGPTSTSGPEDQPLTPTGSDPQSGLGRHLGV
Description: ELISA on LILRB1 domain-Fc fusion proteins.

The target of experiment [9] is T9, LILRB4 on reporter cells (UniProt Q8NHJ6 22-448).
T9 construct: whole, on cells
The experiment can be described thus: flow cytometry on 2B4 cells expressing the LILR, PE.

Experiment [10] has as its target T10, LILRA6 on reporter cells (UniProt Q6PI73 24-481).
T10 construct: whole, on cells
The description is as above.

In experiment [11] the target is T11, LILRA1 on reporter cells (UniProt O75019 17-489, limits assumed).
T11 construct: whole, on cells
T11 sequence (O75019 17-489 limits assumed): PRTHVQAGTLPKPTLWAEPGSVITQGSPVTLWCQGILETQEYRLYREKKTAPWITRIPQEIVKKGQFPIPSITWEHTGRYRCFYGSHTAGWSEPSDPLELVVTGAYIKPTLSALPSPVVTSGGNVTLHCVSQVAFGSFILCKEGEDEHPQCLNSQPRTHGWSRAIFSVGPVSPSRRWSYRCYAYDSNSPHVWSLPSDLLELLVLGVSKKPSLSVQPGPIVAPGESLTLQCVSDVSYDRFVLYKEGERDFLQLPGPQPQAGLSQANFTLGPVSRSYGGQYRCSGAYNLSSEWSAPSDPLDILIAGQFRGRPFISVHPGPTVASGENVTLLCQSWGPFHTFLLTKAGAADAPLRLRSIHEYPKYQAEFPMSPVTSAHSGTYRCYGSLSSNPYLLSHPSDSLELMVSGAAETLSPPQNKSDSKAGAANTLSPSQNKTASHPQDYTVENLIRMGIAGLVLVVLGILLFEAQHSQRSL
The experiment can be described thus: flow cytometry on LILR reporter cells, anti-rabbit IgG PE. For orientation: Flow cytometry measures light scatter and fluorescence of single cells or particles in a stream.

Experiment [12] concerns the target T12, LILRA2 on reporter cells (UniProt Q8N149 24-483).
T12 construct: whole, on cells
Described as above.

T1 sequence (Q8NHL6 27-115 limits assumed): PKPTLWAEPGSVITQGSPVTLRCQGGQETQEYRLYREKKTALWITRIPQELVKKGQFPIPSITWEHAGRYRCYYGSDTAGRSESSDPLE
T6 sequence (Q8NHL6 116-312 limits assumed): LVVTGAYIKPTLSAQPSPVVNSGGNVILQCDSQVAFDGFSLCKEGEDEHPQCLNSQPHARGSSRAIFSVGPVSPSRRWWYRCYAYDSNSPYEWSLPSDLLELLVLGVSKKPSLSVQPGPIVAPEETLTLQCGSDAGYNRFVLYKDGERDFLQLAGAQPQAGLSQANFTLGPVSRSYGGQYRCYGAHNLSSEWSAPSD
T2 sequence (Q8NHL6 116-221 limits assumed): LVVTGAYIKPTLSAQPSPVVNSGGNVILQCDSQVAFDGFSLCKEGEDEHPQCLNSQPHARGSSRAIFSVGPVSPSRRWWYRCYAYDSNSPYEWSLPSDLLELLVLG
T5 sequence (Q8NHL6 410-461 limits assumed): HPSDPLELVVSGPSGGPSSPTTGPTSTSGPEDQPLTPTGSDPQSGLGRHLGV
T12 sequence (Q8N149 24-483): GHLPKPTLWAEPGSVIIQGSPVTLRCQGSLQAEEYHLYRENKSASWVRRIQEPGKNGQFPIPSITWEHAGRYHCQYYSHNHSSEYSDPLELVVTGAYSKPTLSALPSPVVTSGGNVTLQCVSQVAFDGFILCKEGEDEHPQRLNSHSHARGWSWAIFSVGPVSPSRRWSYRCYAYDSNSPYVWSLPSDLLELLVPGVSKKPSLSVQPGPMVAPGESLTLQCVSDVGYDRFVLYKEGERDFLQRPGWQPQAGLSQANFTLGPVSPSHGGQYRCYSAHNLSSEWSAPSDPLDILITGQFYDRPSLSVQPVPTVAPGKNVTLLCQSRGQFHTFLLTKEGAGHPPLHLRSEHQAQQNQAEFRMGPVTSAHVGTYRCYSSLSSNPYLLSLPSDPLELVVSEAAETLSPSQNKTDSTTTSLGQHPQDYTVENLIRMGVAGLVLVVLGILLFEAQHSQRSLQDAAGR
T10 sequence (Q6PI73 24-481): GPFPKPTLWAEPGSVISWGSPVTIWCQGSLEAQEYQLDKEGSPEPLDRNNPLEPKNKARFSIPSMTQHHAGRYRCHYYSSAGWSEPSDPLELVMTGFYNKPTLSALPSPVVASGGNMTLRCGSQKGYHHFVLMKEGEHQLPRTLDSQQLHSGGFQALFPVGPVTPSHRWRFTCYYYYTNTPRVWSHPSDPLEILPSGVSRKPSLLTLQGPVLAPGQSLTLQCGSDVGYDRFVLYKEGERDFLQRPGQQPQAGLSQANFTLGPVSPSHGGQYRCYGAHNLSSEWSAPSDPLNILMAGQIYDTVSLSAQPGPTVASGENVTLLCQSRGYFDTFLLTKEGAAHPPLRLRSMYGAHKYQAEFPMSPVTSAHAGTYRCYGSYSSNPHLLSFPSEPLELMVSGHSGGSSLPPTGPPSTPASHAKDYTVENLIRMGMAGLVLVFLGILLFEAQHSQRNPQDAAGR

B1: B1-176 rabbit antibody (antibody, V domains shown)
VH: QSLEESEGGLVKPGGTLTLTCTASGFSFSSSYCMCWVRQAPGKGLELIACIYTDSSGATYYASWAKGRFTISKSSSTTITLQMTSLTAADTATYFCARGWDYEDPGYTDTTYFSLWGPGTLVTVSS
VL: ELDLTQTPSSVEAAVGGTVTIKCQASQTIYTNLAWYQQKPGQPPNLLIYAASTLASGVSSRFKGSGSGTEFTLTISDLECADAATYYCQSYYGSSTTGNGFGGGTEVEIK
notes: Full-length rabbit IgG, kappa; Variable genes were cloned into a rabbit IgG expression vector and expressed in Expi293F cells
As for B1, the binding result in experiment [1], in [2], in experiment [3], in experiment [4], in experiment [5] and in [6] was “no binding (tested: not given)” in each case. The binding result is recorded as “no binding (tested: not given)” in experiment [7], “no binding (tested: not given)” in [8], “no binding (tested: 0.5 µg/mL)” in experiment [11] and “no binding (tested: 0.5 µg/mL)” in experiment [12]. The “percent of cells in the gate” value came out at 0.181% in experiment [9] and 0.123% in experiment [10].

Source of the values: patent US12723078 (University of Texas, dated 2026).
